# Data: US20190167721A1 (FOURTH MILITARY MEDICAL UNIVERSITY XI AN, published 2019)
# T1: glycosylated CEA (human, UniProt P06731 35-685, glycosylated (sites and glycans not stated))
# T1 construct: whole, on cells; also called glycosylated CEA antigen; MG7
# T1 sequence (looked up): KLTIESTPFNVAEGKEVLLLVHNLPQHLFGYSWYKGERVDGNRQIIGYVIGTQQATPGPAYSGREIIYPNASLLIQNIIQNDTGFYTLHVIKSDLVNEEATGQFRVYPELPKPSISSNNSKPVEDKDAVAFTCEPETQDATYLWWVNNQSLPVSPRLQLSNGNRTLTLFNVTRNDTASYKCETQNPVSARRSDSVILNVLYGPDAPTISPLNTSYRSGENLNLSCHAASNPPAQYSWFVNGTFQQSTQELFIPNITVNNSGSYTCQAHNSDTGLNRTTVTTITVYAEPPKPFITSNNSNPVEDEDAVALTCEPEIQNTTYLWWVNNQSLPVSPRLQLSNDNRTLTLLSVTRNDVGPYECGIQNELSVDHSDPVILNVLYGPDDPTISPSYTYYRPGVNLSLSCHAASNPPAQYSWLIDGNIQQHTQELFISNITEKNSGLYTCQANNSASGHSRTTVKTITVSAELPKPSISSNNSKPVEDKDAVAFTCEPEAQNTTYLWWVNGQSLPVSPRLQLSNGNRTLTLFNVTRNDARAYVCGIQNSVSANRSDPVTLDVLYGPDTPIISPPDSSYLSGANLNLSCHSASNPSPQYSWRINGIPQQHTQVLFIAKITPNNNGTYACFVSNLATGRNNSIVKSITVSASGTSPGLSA
# T2: CEA overexpressed on SW620-CEA cells (CEACAM5, non-glycosylated state) (UniProt P06731 35-685)
# T2 construct: whole, on cells; also called CEACAMS; CEA antigens with a lower degree of glycosylation
# T2 sequence (looked up): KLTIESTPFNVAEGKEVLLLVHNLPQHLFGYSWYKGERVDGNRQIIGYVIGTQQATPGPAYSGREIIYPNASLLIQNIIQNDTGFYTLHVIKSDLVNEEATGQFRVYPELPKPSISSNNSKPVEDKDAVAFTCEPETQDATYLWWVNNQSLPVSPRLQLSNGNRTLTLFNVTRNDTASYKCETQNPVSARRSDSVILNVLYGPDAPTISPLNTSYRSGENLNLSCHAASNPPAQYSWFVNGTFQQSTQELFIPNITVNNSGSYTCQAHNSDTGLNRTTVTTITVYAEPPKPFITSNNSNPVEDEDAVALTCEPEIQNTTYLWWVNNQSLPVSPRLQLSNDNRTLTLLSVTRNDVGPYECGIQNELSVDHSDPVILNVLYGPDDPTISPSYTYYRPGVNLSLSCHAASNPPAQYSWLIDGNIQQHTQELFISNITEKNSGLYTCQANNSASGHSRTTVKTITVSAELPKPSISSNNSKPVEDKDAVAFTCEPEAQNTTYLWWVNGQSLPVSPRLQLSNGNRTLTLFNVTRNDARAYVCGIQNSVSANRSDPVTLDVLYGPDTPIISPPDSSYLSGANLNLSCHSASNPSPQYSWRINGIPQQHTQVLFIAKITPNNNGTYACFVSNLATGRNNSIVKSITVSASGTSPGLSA
# B1: FM5 (scFv, V domains shown)
# VH: QVQLKESGPGLVAPSQNLSITCTVSGFSLTSYAINWVRQPPGKGLEWLGIIWTGGGTNYNSALKSRLSISKDNSKSQVFLKMNSLQTDDTARYYCASGVYYFDYWGLGTTLTVSS
# VL: DIVMTQSHKFMSTSVGDRVSITCKASQDVTTAVAWYQQKPGQSPKVLIFWASTRHTGVPDRFTGSGSGTDYTLTISSVQAEDLALYYCQQYYRTPRTFGGGTKLEIK
# notes: also called antibody FM5; FM5 single-chain antibody
# B2: FM2 (scFv, V domains shown)
# VH: DVKLVESGGGLVKPGGSLKLSCAASGFTFSRYTMSWVRQTPEKRLEWVATISNSGSYTYYRDSVKGRFTISRDNAKNTLYLQMSSLKSEDTAMYYCTRGSPWGQGTLVTVSA
# VL: DIQMTQSPDSLSASVGETVTITCGASENIYGALNWYQRKQGKSPQLLIYGATKLADGMSSRFSGSGSNRQYSLKISSLHPDDVATYYCQNVLSKPYAFGGGTKLEIK
# notes: also called antibody FM2; FM2 single-chain antibody
# B3: FM4 (scFv, V domains shown)
# VH: EVKLVESGGGLVQPGGSLRLSCSISGFTFTDYYMNWVRQSPGKALEWLGFIRNKVNGDTTEYSASVKGRFTISRDISQSILYLQMNTLRTEDSATYYCARDKGIAYYFDYWGQGTTLTVSS
# VL: QIVLSQSPAILFASPGEKVTMTCRASSSVSYIHWYQQKPGSSPKPWIHGTSNLASGVPARFSGSGSGTSYSLTISRMEAEDAATYYCQQWSSNLSTFGGGTKLEIK
# notes: also called antibody FM4; FM4 single-chain antibody
# Columns and labels:
# glycosylated CEA [1] = biological target: T1, glycosylated CEA; assay: flow cytometry on CRYPT cells, goat anti-mouse IgG-APC, logistic fit of MFI
# Procedure: (§1) The antibodies FM2, FM4, FM5, and FM6 were diluted with PBS buffer containing 1% BSA, and incubated with SW620-CEA or CRYPT cells (final concentrations: 50 μg/ml, 5 μg/ml, 0.5 μg/ml, 0.05 μg/ml, 0.005 μg/ml, 0.0005 μg/ml) for 1 hour at room temperature; the cells were washed twice with PBS buffer containing 1% BSA, and then incubated with Goat Anti Mouse IgG-APC for 1 hour; the cells were washed twice with PBS buffer containing 1% BSA and resuspended in PBS buffer; the APC fluorescence values of the cells were read using BD Accuri C6 FACS.
# (§2) Using the median fluorescence value (MFI) as the ordinate and the antibody concentration (μg/ml) as the abscissa, the S-curve was fitted using a logistic equation to calculate the antibody binding EC50, the results are shown in the following table: […]
# [2] = biological target: T2, CEA overexpressed on SW620-CEA cells …; assay: flow cytometry on SW620-CEA cells, goat anti-mouse IgG-APC, logistic fit of MFI
# Procedure: as §1, §2
# glycosylated CEA [3] = biological target: T1, glycosylated CEA; assay: ratio of EC50 values from flow cytometry on cells
binder,measurement,setting,value
B1,EC50,glycosylated CEA [1],0.04 µg/mL
same,EC50,[2],0.2 µg/mL
B2,EC50,glycosylated CEA [1],0.02 µg/mL
same,EC50,[2],0.8 µg/mL
B3,selectivity (glycosylated CEA on CRYPT against non-glycosylated CEA on SW620-CEA),glycosylated CEA [3],> 100 fold
same,EC50,glycosylated CEA [1],0.51 µg/mL
